Test results published in paper PMC10620760, “Phosphorylation controls spatial and temporal activities of motor‐PRC1 complexes to complete mitosis” (The EMBO Journal, 2023).
Where a chain is given by its changes, count along the chain named. Ends that are not written are not given here.

T1: PRC1_(1–168) (human, UniProt O43663 1-168)
T1 chain: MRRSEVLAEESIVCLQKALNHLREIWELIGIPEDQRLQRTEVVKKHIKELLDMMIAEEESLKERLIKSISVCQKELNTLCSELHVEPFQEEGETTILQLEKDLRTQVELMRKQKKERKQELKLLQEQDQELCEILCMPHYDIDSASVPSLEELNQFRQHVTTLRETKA

T2: GFP‐PRC1 (human, UniProt O43663 1-620)
T2 construct: protein regulator of cytokinesis 1 (PRC1), human; Purified recombinant GFP-PRC1 of the TIRF assay; probably full length
T2 sequence (looked up): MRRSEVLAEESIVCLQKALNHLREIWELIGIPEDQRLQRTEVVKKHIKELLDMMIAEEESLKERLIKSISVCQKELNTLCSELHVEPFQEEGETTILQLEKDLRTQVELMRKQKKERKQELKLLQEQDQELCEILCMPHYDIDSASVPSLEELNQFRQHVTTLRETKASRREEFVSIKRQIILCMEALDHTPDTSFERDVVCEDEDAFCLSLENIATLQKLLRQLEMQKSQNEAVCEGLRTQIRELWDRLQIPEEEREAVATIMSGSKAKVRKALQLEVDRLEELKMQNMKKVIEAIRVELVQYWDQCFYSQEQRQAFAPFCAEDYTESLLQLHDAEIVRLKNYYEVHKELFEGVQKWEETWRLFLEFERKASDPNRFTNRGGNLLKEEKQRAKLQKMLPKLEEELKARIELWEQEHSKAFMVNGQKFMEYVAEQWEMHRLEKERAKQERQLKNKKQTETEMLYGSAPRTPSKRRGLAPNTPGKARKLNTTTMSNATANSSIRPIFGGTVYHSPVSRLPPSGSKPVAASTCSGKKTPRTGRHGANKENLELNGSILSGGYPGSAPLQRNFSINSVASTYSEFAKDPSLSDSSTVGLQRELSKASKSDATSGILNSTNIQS

B1: PRC1_(1–168) (domain or fragment, human, UniProt O43663 1-168, looked up)
chain: T1 chain
notes: Dimer by SEC-MALS (52 ± 2.5 kDa measured); source: E. coli BL21-CodonPlus (DE3)-RIL, purified (HisTrap, SEC)
B2: PRC1_(1–168) MEE (domain or fragment, human, UniProt O43663 1-168, looked up)
chain: T1 chain with M54A, E57A, E58A
notes: Vector pET Duet 1; dimer by SEC-MALS; source: E. coli BL21-CodonPlus (DE3)-RIL, purified
B3: GST‐CENP‐E_(2605–2701) 2SD (domain or fragment, human, UniProt Q02224-1 2605-2701, looked up)
chain: SPKSPKVTGTASKKKQITPSQCKERNLQDPVPKEDPKSCFFDSRSKSLPDPHPVRYFDNSSLGLCPEVQNAGAESVDSQPGPWHASSGKDVPECKTQ
notes: also called pAG96; source: E. coli BL21-CodonPlus (DE3)-RIL, purified; not shown: GST, N-terminal, kept
B4: GST‐Kif4A_(1133–1232) (domain or fragment, human, UniProt O95239 1133-1232, looked up)
chain: TQDSEGSFKLEDPTEVTPGLSFFNPVCATPNSKILKEMCDVEQVLSKKTPPAPSPFDLPELKHVATEYQENKAPGKKKKRALASNTSFFSGCSPIEEEAH
notes: also called pAG127; source: E. coli BL21-CodonPlus (DE3)-RIL, purified
B5: CENP‐E peptide 1 (peptide)
peptide: PKSCFFDSRSK
B6: CENP‐E peptide 2 (peptide)
peptide: PVRYFDNSSLG
B7: 647GST‐CENP‐E_(2639–2671) (domain or fragment, human, UniProt Q02224-1 2639-2671, looked up)
chain: SPKSCFFDSRSKSLPSPHPVRYFDNSSLGLCPE
modifications: cysteine pairing not given here; also: Alexa Fluor 647 label, site not given here (degree of labelling ~1:3), GST fusion
notes: also called pAG118

What was measured:
[1] = target: GST‐CENP‐E_(2605–2701) 6SD (human, UniProt Q02224-1 2605-2701, S2639D | S2647D | S2649D (printed S2469D in Table 1; S2649 in the text) | …); test: ITC
[2] = target: the molecule itself; test: SEC-MALS; 100 μl of 3.6 mg/ml PRC1(1-168) (152 μM) or 2.0 mg/ml PRC1(1-168) MEE (84 μM), Superdex-200 Increase 10/300 GL, 20 mM HEPES pH 7.4, 300 mM NaCl, 1 mM EDTA, 22°C
PRC1_(1–168) [3] = target: B1; test: ITC; PRC1(1-168) titrated into the CENP-E construct or peptide in the cell, 25°C, 20 mM HEPES pH 7.5, 150 mM NaCl, 0.005% Tween-20, 0.5 mM TCEP; one set of sites; concentrations calculated for monomers; details: both partners purified
PRC1_(1–168) [4] = target: B1; test: SEC; proteins mixed at equimolar (1:1) ratio, Superdex 200 Increase 10/300 GL, 20 mM HEPES pH 7.5, 300 mM NaCl, 1 mM EDTA, 1 mM DTT; fractions on Coomassie-stained SDS-PAGE; details: both partners purified
PRC1_(1–168) [5] = target: T1, PRC1_(1–168); test: ITC
GFP‐PRC1 = target: T2, GFP‐PRC1; test: TIRF microscopy, recruitment to microtubules in vitro; GMPCPP-stabilized rhodamine microtubules mixed with 647GST-CENP-E(2639-2671) alone, GFP-PRC1 alone or both, held on coverslips by anti-tubulin antibodies; 80 mM PIPES pH 6.9, 5 mM MgCl2, 1 mM DTT, oxygen scavenger; details: both partners purified

With B1 the Kd [1] was greater than 100 µM and the “stoichiometry N” value [2] was 2.

In the case of B2, the “stoichiometry N” value [2] is reported as 2.

Work on B3 yielded a Kd (PRC1_(1–168) [3]) of 2.4 µM.

B4: binds (PRC1_(1–168) [4]).

Work on B5 yielded a Kd (PRC1_(1–168) [5]) of 41.1 µM.

B6 gave a Kd (PRC1_(1–168) [5]) of 64 µM.

B7: binds (GFP‐PRC1).
